# Laboratory results as given in article PMC2196193.
# Target: MBP-III2 (rat) (UniProt P04937)
# Test: ELISA
# Chain of UniProt P04937 (P04937 701-808): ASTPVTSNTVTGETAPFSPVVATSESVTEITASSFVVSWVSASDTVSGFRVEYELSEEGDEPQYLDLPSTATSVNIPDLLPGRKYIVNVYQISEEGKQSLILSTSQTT
substance,measurement,value
rat plasma fibronectin (from UniProt P04937 25-2477) (natural protein),Kd,28 nM
